Test results taken from the supplement of paper PMC9170038.

Tested on: MS2 coat protein
Assay: apparent KD of MS2 coat protein; designed switch direction (-1 OFF switch, 1 ON switch): 1; higher = weaker reporter binding
Summary of the method: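 Apparent KD, taken as the median over clusters for each design, was obtained by curve-fitting normalised cluster fluorescence. Designed RNA switches had been transcribed on Illumina chips by stalled E. coli RNA polymerase and titrated with SNAP-549-labelled MS2 coat protein, doubling from 0.7 or 1.5 nM to 3 µM.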

[1] = Eterna round: R95, input ligand: FMN 200 uM
[2] = Eterna round: R95, input ligand: microRNA oligo, concentration not stated
[3] = Eterna round: R95, input ligand: none
[4] = input ligand: microRNA oligo, concentration not stated

Sequence | apparent KD of MS2 coat protein [1] [nM] | apparent KD of MS2 coat protein [2] [nM] | apparent KD of MS2 coat protein [3] [nM] | apparent KD of MS2 coat protein (input ligand: FMN 200 uM) [nM] | apparent KD of MS2 coat protein [4] [nM] | apparent KD of MS2 coat protein (input ligand: none) [nM]
UAUAAACAUGAGGAUCACCCAUGUAAUAAUAUGGGAGGAUAUCAGAAUUUAUUUAUUUAAUGAGAAGGCCUAAUAU [Mat - Same State 1 - Mod of Eli - D67] (puzzle: Same State 1) | 34.5 | 210 | 562 | – | – | –
UAUUAGAUCCGAGGAUAUCCUUAUAAGAAACAUGAGGAUCACCCAUGUAAAGGGAAUUAUUUGUAGGAGAAGGCGGAUUUAGUU [JR_SSNG2_Sub055] (Eterna round: R96, puzzle: Same State NG 2) | – | – | – | 28.9 | 23 | 41.3
UCAAGCGAGAGGCUCGUCUUAUGUAAGGUACAUGAGGAUCACCCAUGUGAGGGACGAUUGAGUUAGAUGGAAUGGAG [JR_SHM208A_Sub033] (puzzle: Sensor for hsa-mir-208a) | 42.3 | 121 | 50.9 | – | – | –
UCAAGCGUUUGGCUCGUCUUAUGUUUGGUACAUGAGGAUCACCCAUGUUAUGUACGAUCCAGUUAGAUGGUAUUUUG [JR_SHM208A_Sub037] (puzzle: Sensor for hsa-mir-208a) | 35.9 | 127 | 47.1 | – | – | –
UCAAUCAUGUAAGGAUAUGCAGCCGAAACGGCUGCAGAAGGUACUAUAAUUACAUGAGGAUCACCCAUGUUAUAAAAUAAAUAU [Mat - Same State NG 1 - JL mod - D80] (Eterna round: R96, puzzle: Same State NG 1) | – | – | – | 40.9 | 92.7 | 160
UCGAGCGUACUUGCAGACAUGAGGAUCACCCAUGUAAAUGGGAAGGAUAUGGUACCGUUUCGGUACCAGAAGGUCCUAAGUGCU [salish99_SSNG3_r04_304] (Eterna round: R96, puzzle: Same State NG 3) | – | – | – | 166 | 862 | 1440
UCUCGGCACGCAGGAUAUCCCGCUUCCUGGUGAGGAGAAGGGUGGUCGGGAAAACAUGAGGAUCACCCAUGUAAAAGUAAGAGG [Usdidige] (Eterna round: R96, puzzle: Same State NG 1) | – | – | – | 41.6 | 61.3 | 183
UCUGCAUGAACAGGAUAUGGGUUCAGAGCGGGAGUGCGCUUUGACACAUGAGGAUCACCCAUGUCCCAGAAGGGUUCAAGCGGC [Rianbein] (Eterna round: R96, puzzle: Same State NG 2) | – | – | – | 47.7 | 219 | 430
UCUUGGUUUUUGCUCGUUUUUUGUGUUGAACAUGAGGAUCACCCAUGUAUUGUACGGUCCAGUUUAAUAAUGGUCCA [JMF 6] (puzzle: Sensor for hsa-mir-208a) | 25.9 | 14.4 | 26 | – | – | –
UGAACCUUCACAGGAUAUCAUGCGAAAAUUGCGUGAGAAGGGUGGAUGUGGCGUUCAUAGUUGCACAUGAGGAUCACCCAUGUA [SameState NG1 #50] (Eterna round: R96, puzzle: Same State NG 1) | – | – | – | 257 | 212 | 134
UGAGCCGGCACUGAGGAUAUUCAUAUUUAAACAUGAGGAUCACCCAUGUAGGCCAGAAGGCCUUGGGAGAAGGCAGGUCGGCUCU [salish99_ss2_r3_078] (puzzle: Same State 2) | – | 258 | – | – | – | –
UGCAUACAUGAGGAUCACCCAUGUCAACGUAGCCGAGGAUAUGGAUUGCCGUGAGGCGUGCCAGAAGGCGGAGAGG [Same State 1 - Mod of Vinnie Teenbexe] (puzzle: Same State 1) | 29.1 | 42.5 | 59 | – | – | –
UGCAUACAUGAGGAUCACCCAUGUCAACGUAGUCGAGGAUAUGGGCAGCCGUGAGGCGUACCAGAAGGCGAAGAGG [JL-ss1-3.04 ViennaUCT mod] (puzzle: Same State 1) | 28.7 | 62.2 | 77.9 | – | – | –
UGCUAUAGUAUAUUGGUGCAAGCUUUUUGACAUGAGGAUCACCCAUGUACUCGUCUUAAGCGCAGUCCGUAGACUGC (puzzle: Sensor for hsa-mir-208a) | 84.5 | 13.8 | 89.9 | – | – | –
UGCUAUUGUAUAUUGGUGCAAGCUUAUUGACAUGAGGAUCACCCAUGUACUCGUCUUAUGUGCAGUCCGUAGACUGC [JL-shm-2.25 Brourd mod] (puzzle: Sensor for hsa-mir-208a) | 72 | 13.9 | 78.7 | – | – | –
UGCUUCGUGUAAGGAUAUGCAGCCGUUUCGGCUGCAGAAGGUACUAUAAUACAUGAGGAUCACCCAUGUCUCUCGCAUUGCGGG [salish99_SSng1_r04_303] (Eterna round: R96, puzzle: Same State NG 1) | – | – | – | 37.5 | 40.3 | 52.2
UGGAUCUAGGCUUGCCUGGGUCCAUGCUGACAUGAGGAUCACCCAUGUGCAUUCUAUAAGCUUUUUGUUUGUCAGCU (puzzle: Sensor for hsa-mir-208a) | 360 | 25.1 | 411 | – | – | –
UGGCCAGCCUGUGCUGGGCUUUUGCAUGUACAUGAGGAUCACCCAUGUCGUGUUCAUGCUUUUUGCUCGUCUUUAAA [Photon Torp-03] (puzzle: Sensor for hsa-mir-208a) | 49.5 | 16.3 | 55.8 | – | – | –
UGGCUCAGACGAGGAUAUGAUCAUGGCGCUUCGGCGCAUACAUGAGGAUCACCCAUGUAGGGUGAUCAGAAGGUGUCUGAGCCA [SSNG2/8-B2] (Eterna round: R96, puzzle: Same State NG 2) | – | – | – | 90.9 | 578 | 1000
UGGCUCAGAGCAGGAUAUAUGUAAUAACAUGAGGAUCACCCAUGUGUCGAGCUUCGGCUCGACACAUAGAAGGGCUCUGAGCCA [SSNG2/2-B2] (Eterna round: R96, puzzle: Same State NG 2) | – | – | – | 13.3 | 29.2 | 40.9
UGGCUGAGUCGAGGAUAUGAUCUUCAUAUAUAUACAUGAGGAUCACCCAUGUAUAAUUACAUGGAUCAGAAGGCGACUCAGCCU [SSNG2/13-A2] (Eterna round: R96, puzzle: Same State NG 2) | – | – | – | – | 23 | –
UGGCUGGUGCUAGGAUAUACAUGAGGAAUCCUCGUAGAAGGAGCACGACAUGAGGAUCACCCAUGUAGCCGUCCGUAGACGGCU [salish99_SSNG1_r04_007] (Eterna round: R96, puzzle: Same State NG 1) | – | – | – | 284 | 156 | 112
UGGUACAUGGGAGGAUAUGGAGUGAAGACAUGAGGAUCACCCAUGUUAUAAAAGCCGAGAGGCAACUAGAAGGCCCAUGUACCU [JL SSNG1 3.93] (Eterna round: R96, puzzle: Same State NG 2) | – | – | – | 14.3 | 37 | 55
